Data on 2 substances can be found in patent US20180030118A1.

Holding throughout (experiment): ELISA, GP coated 200 ng/well, mAb at 2 ug/mL; negative control
A general note: An ELISA detects its analyte on a solid surface through an enzyme-linked reagent.

The target of experiment [1] is MARV Musoke GPe (Marburg virus, strain Musoke) (UniProt P35253).
The target in experiment [2] is MARV Angola GPe (Marburg virus, strain Angola) (UniProt Q1PD50).
Experiment [3] deals with MARV Ravn GPe (Marburg virus, strain Ravn) (UniProt Q1PDC7).
MARV Ravn GPe (Marburg virus, strain Ravn), sequence (Q1PDC7 19-648): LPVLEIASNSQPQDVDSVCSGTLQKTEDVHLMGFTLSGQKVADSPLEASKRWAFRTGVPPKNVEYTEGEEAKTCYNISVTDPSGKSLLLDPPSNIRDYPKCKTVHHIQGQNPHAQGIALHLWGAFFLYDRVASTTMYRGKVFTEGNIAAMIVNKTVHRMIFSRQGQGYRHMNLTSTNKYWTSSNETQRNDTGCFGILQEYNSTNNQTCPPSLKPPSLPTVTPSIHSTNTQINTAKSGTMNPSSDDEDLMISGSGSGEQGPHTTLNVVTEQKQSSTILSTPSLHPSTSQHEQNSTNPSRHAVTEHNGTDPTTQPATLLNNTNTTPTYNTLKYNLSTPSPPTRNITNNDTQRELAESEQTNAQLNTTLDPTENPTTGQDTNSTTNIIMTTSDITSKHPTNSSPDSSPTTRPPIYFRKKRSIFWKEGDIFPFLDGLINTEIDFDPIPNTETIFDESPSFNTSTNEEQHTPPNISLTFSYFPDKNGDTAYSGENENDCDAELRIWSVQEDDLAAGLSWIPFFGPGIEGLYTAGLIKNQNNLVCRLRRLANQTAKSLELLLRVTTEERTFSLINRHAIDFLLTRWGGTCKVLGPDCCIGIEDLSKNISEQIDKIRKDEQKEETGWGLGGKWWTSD

MARV Musoke GPe (Marburg virus, strain Musoke), sequence (P35253 19-648): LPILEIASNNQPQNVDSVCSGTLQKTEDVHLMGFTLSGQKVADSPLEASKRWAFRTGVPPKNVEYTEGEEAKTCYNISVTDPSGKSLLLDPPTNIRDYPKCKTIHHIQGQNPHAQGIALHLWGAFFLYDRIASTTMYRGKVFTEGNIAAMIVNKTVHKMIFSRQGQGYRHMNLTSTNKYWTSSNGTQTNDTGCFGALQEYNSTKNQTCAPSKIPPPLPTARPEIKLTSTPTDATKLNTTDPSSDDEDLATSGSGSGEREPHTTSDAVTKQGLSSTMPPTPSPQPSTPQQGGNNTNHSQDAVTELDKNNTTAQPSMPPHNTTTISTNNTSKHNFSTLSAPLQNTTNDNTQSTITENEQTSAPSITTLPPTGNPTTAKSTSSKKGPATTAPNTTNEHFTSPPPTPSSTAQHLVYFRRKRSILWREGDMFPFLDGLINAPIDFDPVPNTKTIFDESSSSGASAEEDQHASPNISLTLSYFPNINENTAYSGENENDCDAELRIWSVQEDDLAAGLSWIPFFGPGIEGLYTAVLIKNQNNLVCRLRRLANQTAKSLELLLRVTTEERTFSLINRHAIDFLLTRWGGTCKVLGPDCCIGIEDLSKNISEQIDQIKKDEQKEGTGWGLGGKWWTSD
MARV Angola GPe (Marburg virus, strain Angola), sequence (Q1PD50 19-648): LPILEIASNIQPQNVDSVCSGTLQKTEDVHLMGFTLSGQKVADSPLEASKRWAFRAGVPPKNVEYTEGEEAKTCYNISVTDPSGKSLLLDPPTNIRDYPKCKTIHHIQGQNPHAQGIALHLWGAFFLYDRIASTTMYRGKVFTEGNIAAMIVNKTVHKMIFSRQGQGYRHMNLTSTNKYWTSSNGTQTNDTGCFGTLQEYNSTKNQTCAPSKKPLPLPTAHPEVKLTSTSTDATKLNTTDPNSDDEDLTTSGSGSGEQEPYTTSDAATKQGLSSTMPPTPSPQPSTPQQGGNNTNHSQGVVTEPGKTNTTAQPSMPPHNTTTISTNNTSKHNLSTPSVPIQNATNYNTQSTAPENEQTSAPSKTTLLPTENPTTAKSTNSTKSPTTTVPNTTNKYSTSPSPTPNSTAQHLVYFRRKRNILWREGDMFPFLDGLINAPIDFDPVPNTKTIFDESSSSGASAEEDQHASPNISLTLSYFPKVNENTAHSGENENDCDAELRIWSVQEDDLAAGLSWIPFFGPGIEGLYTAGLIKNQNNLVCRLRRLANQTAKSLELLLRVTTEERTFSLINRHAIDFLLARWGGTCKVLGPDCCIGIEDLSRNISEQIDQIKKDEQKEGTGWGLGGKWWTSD

For the substance IgG Neg Control (human) (antibody), the OD405 @ 30 min in experiment [1] was found to be 0.056 OD405; in experiment [2], 0.054 OD405; in experiment [3], 0.052 OD405.
For IgG Neg Control (murine) (antibody), in that order: 0.049 OD405, 0.047 OD405 and 0.049 OD405.
